Laboratory results: PMC9482650, “Quantitative fragmentomics allow affinity mapping of interactomes” (Nature Communications, 2022)

T1: PDZRN3_1, Q9UPQ7
T1 sequence (Q9UPQ7 244-349, limits assumed, looked up): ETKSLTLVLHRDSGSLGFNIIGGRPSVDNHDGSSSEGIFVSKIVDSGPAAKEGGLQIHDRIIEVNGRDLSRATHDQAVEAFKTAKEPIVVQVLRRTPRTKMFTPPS

T2: DFNB31_1, Q9P202
T2 sequence (Q9P202 135-233, limits assumed, looked up): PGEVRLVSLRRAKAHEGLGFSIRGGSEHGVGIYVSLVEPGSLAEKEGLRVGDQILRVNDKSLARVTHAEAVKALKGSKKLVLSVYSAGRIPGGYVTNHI

T3: PTPN13_1, Q12923
T3 sequence (Q12923 1088-1188, limits assumed, looked up): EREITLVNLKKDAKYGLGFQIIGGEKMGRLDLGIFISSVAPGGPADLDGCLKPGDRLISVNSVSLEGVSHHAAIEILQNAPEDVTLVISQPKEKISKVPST

T4: TX1BP3, O14907
T4 sequence (O14907 10-122, limits assumed, looked up): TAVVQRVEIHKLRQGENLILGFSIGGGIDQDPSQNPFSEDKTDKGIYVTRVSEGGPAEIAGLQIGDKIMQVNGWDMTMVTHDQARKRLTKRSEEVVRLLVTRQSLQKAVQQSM

T5: TIAM2, Q8IVF5
T5 sequence (Q8IVF5 885-986, limits assumed, looked up): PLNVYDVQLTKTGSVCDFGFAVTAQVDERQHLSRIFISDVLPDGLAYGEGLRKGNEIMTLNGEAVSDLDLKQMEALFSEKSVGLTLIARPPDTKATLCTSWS

T6: SYNJ2BP, P57105
T6 sequence (P57105 8-110, limits assumed, looked up): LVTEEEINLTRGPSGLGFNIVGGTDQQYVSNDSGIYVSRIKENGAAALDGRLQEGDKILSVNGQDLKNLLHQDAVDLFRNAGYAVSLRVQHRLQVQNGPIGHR

T7: MPP2, Q14168
T7 sequence (Q14168 180-250, limits assumed, looked up): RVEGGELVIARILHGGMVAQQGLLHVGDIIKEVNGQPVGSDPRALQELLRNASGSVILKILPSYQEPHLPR

T8: LRRC7, Q96NW7
T8 sequence (Q96NW7 1440-1537, limits assumed, looked up): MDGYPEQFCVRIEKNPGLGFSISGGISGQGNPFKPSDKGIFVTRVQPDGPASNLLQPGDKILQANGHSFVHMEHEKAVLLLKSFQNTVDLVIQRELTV

T9: GRIP1_2, Q9Y3R0
T9 sequence (Q9Y3R0 145-248, limits assumed, looked up): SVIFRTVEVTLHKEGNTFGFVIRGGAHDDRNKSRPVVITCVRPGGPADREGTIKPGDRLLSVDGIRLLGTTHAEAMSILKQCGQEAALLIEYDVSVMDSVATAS

T10: DFNB31_2, Q9P202
T10 sequence (Q9P202 274-371, limits assumed, looked up): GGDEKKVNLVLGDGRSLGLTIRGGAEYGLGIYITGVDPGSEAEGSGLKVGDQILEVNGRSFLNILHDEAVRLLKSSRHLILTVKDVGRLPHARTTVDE

T11: SNTG1, Q9NSN8
T11 sequence (Q9NSN8 52-150, limits assumed, looked up): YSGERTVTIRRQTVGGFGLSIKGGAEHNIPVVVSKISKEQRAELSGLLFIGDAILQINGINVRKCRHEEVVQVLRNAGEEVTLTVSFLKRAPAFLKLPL

T12: PCLO, Q9Y6V0
T12 sequence (Q9Y6V0 4491-4600, limits assumed, looked up): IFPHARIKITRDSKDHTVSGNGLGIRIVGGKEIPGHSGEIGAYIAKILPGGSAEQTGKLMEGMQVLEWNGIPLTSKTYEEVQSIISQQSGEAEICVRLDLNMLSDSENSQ

T13: FRMPD1, Q5SYB0
T13 sequence (Q5SYB0 52-145, limits assumed, looked up): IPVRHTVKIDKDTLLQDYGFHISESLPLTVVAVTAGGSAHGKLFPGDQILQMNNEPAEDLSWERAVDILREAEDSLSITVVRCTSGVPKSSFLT

T14: PDZD2_2, O15018
T14 sequence (O15018 329-429, limits assumed, looked up): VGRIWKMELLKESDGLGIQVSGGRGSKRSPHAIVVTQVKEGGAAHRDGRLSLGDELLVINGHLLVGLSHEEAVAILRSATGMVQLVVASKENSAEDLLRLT


target: T1, PDZRN3_1, Q9UPQ7; test: holdup assay; set-up: key: below the threshold = too weak to quantify, mostly under pKd 3.1 to 4; details: plain residues with an end cap or a label only (N-terminal biotin on a linker: ado-ado)

Binder	pKd
HLRQQGSVEV [EPHB6, O15197]	below the threshold

target: T2, DFNB31_1, Q9P202; test: holdup assay; set-up: key: below the threshold = too weak to quantify, mostly under pKd 3.1 to 4; details: plain residues with an end cap or a label only (N-terminal biotin on a linker: ado-ado)

Binder	pKd
HLRQQGSVEV [EPHB6, O15197]	below the threshold

target: T3, PTPN13_1, Q12923; test: holdup assay; set-up: key: below the threshold = too weak to quantify, mostly under pKd 3.1 to 4; details: plain residues with an end cap or a label only (N-terminal biotin on a linker: ado-ado)

Binder	pKd
HLRQQGSVEV [EPHB6, O15197]	below the threshold

target: Inadl_3, Q8NI35; test: holdup assay; set-up: key: below the threshold = too weak to quantify, mostly under pKd 3.1 to 4; details: plain residues with an end cap or a label only (N-terminal biotin on a linker: ado-ado)
Sequence (Q8NI35 359-469): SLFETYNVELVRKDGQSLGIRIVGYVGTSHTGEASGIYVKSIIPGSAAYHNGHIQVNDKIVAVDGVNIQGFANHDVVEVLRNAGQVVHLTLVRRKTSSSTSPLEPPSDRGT

Binder	pKd
HLRQQGSVEV [EPHB6, O15197]	below the threshold

target: T4, TX1BP3, O14907; test: holdup assay; set-up: key: below the threshold = too weak to quantify, mostly under pKd 3.1 to 4; details: plain residues with an end cap or a label only (N-terminal biotin on a linker: ado-ado)

Binder	pKd
HLRQQGSVEV [EPHB6, O15197]	3.85

target: CASK, O14936; test: holdup assay; set-up: key: below the threshold = too weak to quantify, mostly under pKd 3.1 to 4; details: plain residues with an end cap or a label only (N-terminal biotin on a linker: ado-ado)
Sequence (O14936 487-570): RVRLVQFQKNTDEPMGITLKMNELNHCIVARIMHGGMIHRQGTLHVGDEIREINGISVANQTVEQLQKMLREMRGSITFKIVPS

Binder	pKd
HLRQQGSVEV [EPHB6, O15197]	below the threshold

target: T5, TIAM2, Q8IVF5; test: holdup assay; set-up: key: below the threshold = too weak to quantify, mostly under pKd 3.1 to 4; details: plain residues with an end cap or a label only (N-terminal biotin on a linker: ado-ado)

Binder	pKd
HLRQQGSVEV [EPHB6, O15197]	below the threshold

target: T6, SYNJ2BP, P57105; test: holdup assay; set-up: key: below the threshold = too weak to quantify, mostly under pKd 3.1 to 4; details: plain residues with an end cap or a label only (N-terminal biotin on a linker: ado-ado)

Binder	pKd
HLRQQGSVEV [EPHB6, O15197]	below the threshold

target: T7, MPP2, Q14168; test: holdup assay; set-up: key: below the threshold = too weak to quantify, mostly under pKd 3.1 to 4; details: plain residues with an end cap or a label only (N-terminal biotin on a linker: ado-ado)

Binder	pKd
HLRQQGSVEV [EPHB6, O15197]	below the threshold

target: FRMPD4, Q14CM0; test: holdup assay; set-up: key: below the threshold = too weak to quantify, mostly under pKd 3.1 to 4; details: plain residues with an end cap or a label only (N-terminal biotin on a linker: ado-ado)
Sequence (Q14CM0 67-160): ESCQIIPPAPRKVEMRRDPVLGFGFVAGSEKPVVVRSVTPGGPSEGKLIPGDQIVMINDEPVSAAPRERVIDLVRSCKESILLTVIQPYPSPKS

Binder	pKd
HLRQQGSVEV [EPHB6, O15197]	below the threshold

target: T8, LRRC7, Q96NW7; test: holdup assay; set-up: key: below the threshold = too weak to quantify, mostly under pKd 3.1 to 4; details: plain residues with an end cap or a label only (N-terminal biotin on a linker: ado-ado)

Binder	pKd
HLRQQGSVEV [EPHB6, O15197]	below the threshold

target: MAGI1_2, Q96QZ7; test: holdup assay; set-up: key: below the threshold = too weak to quantify, mostly under pKd 3.1 to 4; details: plain residues with an end cap or a label only (N-terminal biotin on a linker: ado-ado)
Sequence (Q96QZ7 456-580): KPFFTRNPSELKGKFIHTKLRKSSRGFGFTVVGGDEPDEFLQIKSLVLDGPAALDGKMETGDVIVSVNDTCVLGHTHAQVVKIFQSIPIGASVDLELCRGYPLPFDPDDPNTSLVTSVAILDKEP

Binder	pKd
HLRQQGSVEV [EPHB6, O15197]	below the threshold

target: T9, GRIP1_2, Q9Y3R0; test: holdup assay; set-up: key: below the threshold = too weak to quantify, mostly under pKd 3.1 to 4; details: plain residues with an end cap or a label only (N-terminal biotin on a linker: ado-ado)

Binder	pKd
HLRQQGSVEV [EPHB6, O15197]	below the threshold

target: SNX27, Q96L92; test: holdup assay; set-up: key: below the threshold = too weak to quantify, mostly under pKd 3.1 to 4; details: plain residues with an end cap or a label only (N-terminal biotin on a linker: ado-ado)

Binder	pKd
HLRQQGSVEV [EPHB6, O15197]	3.76

target: T10, DFNB31_2, Q9P202; test: holdup assay; set-up: key: below the threshold = too weak to quantify, mostly under pKd 3.1 to 4; details: plain residues with an end cap or a label only (N-terminal biotin on a linker: ado-ado)

Binder	pKd
HLRQQGSVEV [EPHB6, O15197]	below the threshold

target: T11, SNTG1, Q9NSN8; test: holdup assay; set-up: key: below the threshold = too weak to quantify, mostly under pKd 3.1 to 4; details: plain residues with an end cap or a label only (N-terminal biotin on a linker: ado-ado)

Binder	pKd
HLRQQGSVEV [EPHB6, O15197]	below the threshold

target: GRIP2_6, Q9C0E4; test: holdup assay; set-up: key: below the threshold = too weak to quantify, mostly under pKd 3.1 to 4; details: plain residues with an end cap or a label only (N-terminal biotin on a linker: ado-ado)
Sequence (Q9C0E4 648-740): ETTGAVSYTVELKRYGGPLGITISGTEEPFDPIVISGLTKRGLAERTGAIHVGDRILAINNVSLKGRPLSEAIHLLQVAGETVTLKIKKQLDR

Binder	pKd
HLRQQGSVEV [EPHB6, O15197]	3.93

target: T12, PCLO, Q9Y6V0; test: holdup assay; set-up: key: below the threshold = too weak to quantify, mostly under pKd 3.1 to 4; details: plain residues with an end cap or a label only (N-terminal biotin on a linker: ado-ado)

Binder	pKd
HLRQQGSVEV [EPHB6, O15197]	below the threshold

target: T13, FRMPD1, Q5SYB0; test: holdup assay; set-up: key: below the threshold = too weak to quantify, mostly under pKd 3.1 to 4; details: plain residues with an end cap or a label only (N-terminal biotin on a linker: ado-ado)

Binder	pKd
HLRQQGSVEV [EPHB6, O15197]	below the threshold

target: DLG5_1, Q8TDM6; test: holdup assay; set-up: key: below the threshold = too weak to quantify, mostly under pKd 3.1 to 4; details: plain residues with an end cap or a label only (N-terminal biotin on a linker: ado-ado)
Sequence (Q8TDM6 617-713): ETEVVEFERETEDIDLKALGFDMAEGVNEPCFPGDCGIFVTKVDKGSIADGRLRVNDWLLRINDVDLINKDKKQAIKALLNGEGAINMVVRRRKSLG

Binder	pKd
HLRQQGSVEV [EPHB6, O15197]	below the threshold

target: T14, PDZD2_2, O15018; test: holdup assay; set-up: key: below the threshold = too weak to quantify, mostly under pKd 3.1 to 4; details: plain residues with an end cap or a label only (N-terminal biotin on a linker: ado-ado)

Binder	pKd
HLRQQGSVEV [EPHB6, O15197]	below the threshold

target: GIPC2, Q8TF65; test: holdup assay; set-up: key: below the threshold = too weak to quantify, mostly under pKd 3.1 to 4; details: plain residues with an end cap or a label only (N-terminal biotin on a linker: ado-ado)
Sequence (Q8TF65 112-203): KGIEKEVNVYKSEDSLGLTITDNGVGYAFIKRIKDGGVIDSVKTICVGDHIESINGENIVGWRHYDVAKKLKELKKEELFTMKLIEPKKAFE

Binder	pKd
HLRQQGSVEV [EPHB6, O15197]	below the threshold

target: FRMPD2_3, Q68DX3; test: holdup assay; set-up: key: below the threshold = too weak to quantify, mostly under pKd 3.1 to 4; details: plain residues with an end cap or a label only (N-terminal biotin on a linker: ado-ado)
Sequence (Q68DX3 1073-1166): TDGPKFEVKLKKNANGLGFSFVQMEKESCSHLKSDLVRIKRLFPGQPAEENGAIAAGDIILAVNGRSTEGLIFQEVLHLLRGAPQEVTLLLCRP

Binder	pKd
HLRQQGSVEV [EPHB6, O15197]	below the threshold
